Measurements as given in patent US10597674B2, “HPPD variants and methods of use” (BASF Agricultural Solutions Seed, US LLC, priority 2015, dated 2020).

What was measured:
[1] = system: transgenic T1 soybean events; assay: Field trials of T1 soybean events, leaf damage eight days after application; format: in vivo; conditions: wild-type or segregated T1 soybean plants without tolerant polypeptide; 210 g/ha isoxaflutole or 150 g/ha Cmpd. 1; eight days
Method: Soybean plants expressing an HPPD inhibitor tolerant polypeptide of the present invention alone, or along with a gene conferring tolerance to glyphosate and/or a gene conferring tolerance to glufosinate or having a “plant expression cassette”, which includes only an HPPD inhibitor tolerant polypeptide of the present invention, were tested for tolerance to different HPPD inhibitor herbicide chemical classes. The transgenic plants were routinely analyzed for the expression and presence of the transgenes using the ELISA protein detection method (see detailed description under item D and H). Only plants recovering in the selection media and having a detectable HPPD transgene protein expression were regenerated, transferred to the greenhouse and used at V2-V4 growth stage for the HPPD inhibitor herbicide tolerance analysis of the T0 soybean events in the greenhouse (Example 6). The chemical formulation with HPPD inhibitor herbicides was supplemented with ammonium sulfate and methyl ester rapeseed oil. Herbicide tolerance evaluation was taken 5-21 days after spraying. The best performing independent T0 soybean events were selfed to produce T1 soybean seeds. In the field trails, the advanced T1 soybean seeds were planted and treated with either 210 g/ha of isoxaflutole or 150 g/ha of Cmpd.
In Table 10, the frequency of the soybean events showing a good tolerance, i.e. equal or less than 15% damage of the total leaf area are summarized

[2] = system: E. coli cells expressing an HPPD polypeptide; assay: Brown Color Assay on solid LB-agar, visual score of brown pigment; format: cell-based; parameters: key to brown pigment formation: +++: a dark brown coloring as seen for E. coli cells expressing one of the respective mutant HPPD polypeptide without inhibitor; ++: medium brown pigmentation; +: light brown pigmentation; 0: no brown pigmentation development was detected on the LB agar plates; conditions: for brown coloring compared with SEQ ID NO: 2, in words: 25, 50, 100, 250 and 500 μM Cmpd. 1
Method: Mutant HPPD polypeptides were analyzed using a brown color assay (WO2014/043435). Bacterial cells expressing the mutant HPPD polypeptide according to the invention were assayed in 96 well format for HPPD inhibitor tolerance by spotting on solid media containing LB-agar, selection agent for the expression vector pSE420(RI)NX (WO2014/043435), 5 mM tyrosine (Sigma-Aldrich, St. Louis, USA), 42 mM succinate (Sigma-Aldrich, St. Louis, USA) and six different concentrations of the HPPD inhibitor herbicide Cmpd. 1 (0-500 μM). In the brown color assay, an overnight culture of the E. coli cells expressing one of the respective mutant HPPD polypeptides were diluted to an OD600 of 1 and 10 μl extract was spotted in triplicates on plates containing 0, 25, 50, 100, 250, or 500 μM of Cmpd. 1. Plates were covered with airpore tape and incubated at 30 degrees C. After 24 hours, the cells were kept in darkness at room temperature and after 7 days the brown pigment formation was scored visually. In the presence of an HPPD inhibitor herbicide, this pigment formation is inhibited and the color of the agar plate will not alter, unless an HPPD inhibitor herbicide tolerant HPPD polypeptide is expressed and active. […] The “++” and “+” scores a medium and light brown pigmentation, respectively, and the “0” means that no brown pigmentation development was detected on the LB agar plates.

[3] = system: HPPD polypeptides (wild-type SEQ ID NO:1 and mutants); conditions: different HPPD inhibitor herbicide chemical classes
[4] = system: E. coli cells expressing an HPPD polypeptide; assay: Brown color bioassay in liquid culture, residual brown color formation (BCF), OD440 after 96 hours; format: cell-based; conditions: Cmpd. 1 1000 μM, 96 hours
Summary of the method: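 E. coli expressing HPPD variants were grown at 30 degrees Celsius from OD600 0.3-0.5 in LB with 5 mM HPP, with or without herbicide (e.g. Cmpd. 1, 1000 μM). After 96 hours, supernatant OD440 was measured; residual brown colour formation compares pigment with and without inhibitor.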

[5] = system: transgenic soybean T0 events; assay: Additional greenhouse trials of T0 soybean events, leaf damage score 0-100 as percentiles; format: in vivo; conditions: Cmpd. 1 300 g AI/ha, five days
Summary of the method: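 Independent T0 events (21 to 94 per construct, single cassette insertion) expressing mutant HPPD were sprayed with HPPD inhibitor herbicide in the greenhouse. Leaf damage scored 5 days after application from 0 (no damage) to 100 (complete bleaching). Scores reported as percentile distributions (25th, median, 75th) per construct.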

[6] = 25 μM Cmpd. 1, scored after 7 days
[7] = 50 μM Cmpd. 1, scored after 7 days
[8] = 100 μM Cmpd. 1, scored after 7 days
[9] = 250 μM Cmpd. 1, scored after 7 days
[10] = 500 μM Cmpd. 1, scored after 7 days

CS(=O)(=O)c1cc(C(F)(F)F)ccc1C(=O)c1cnoc1C1CC1 [isoxaflutole, (5-cyclopropyl-4-isoxazolyl)[2-(methylsulfonyl)-4-(trifluoromethyl)phenyl]methanone, reference compound]
leaf damage [1]: 100%

B1: SEQ ID NO: 103 (protein)
chain: MADLYENPMGLMGFEFIEFASPTPGTLEPIFEIMGFTKVATHRSKNVHLYRQGEINLILNNEPNSIASYFAAEHGPSVCGMAFRVKDSQKAYNRALELGAQPIHIDTGPMELNLPAIKGIGGAPLYLIDRFGEGSSIYDIDFVYLEGVERNPVGAGLKVIDHLTHNVYRGRMVYWANFYEKLFNFREARYFDIKGEYTGLTSKAMSAPDGMIKIPLNEESSKGAGQIEEFLMQFNGEGIQHVAFLTDDLVKTWDALKKIGMRFLTAPGDEYYEMLEGRLPDHGEPVDQLQARGILLDGSSVEGDKRLLLQIFSERLMGPVFFEFIQRKGDDGFGPHSFKVLFEQMERDQVRRGVLTAD
modifications: mutant HPPD polypeptide
brown pigment formation [2, 6]: ++ | brown pigment formation [2, 7]: ++ | brown pigment formation [2, 8]: ++ | brown pigment formation [2, 9]: + | brown pigment formation [2, 10]: 0

B2: SEQ ID NO:1 (protein, listed as Pseudomonas fluorescens)
chain: MADLYENPMGLMGFEFIEFASPTPGTLEPIFEIMGFTKVATHRSKNVHLYRQGEINLILNNEPNSIASYFAAEHGPSVCGMAFRVKDSQKAYNRALELGAQPIHIDTGPMELNLPAIKGIGGAPLYLIDRFGEGSSIYDIDFVYLEGVERNPVGAGLKVIDHLTHNVYRGRMVYWANFYEKLFNFREARYFDIKGEYTGLTSKAMSAPDGMIRIPLNEESSKGAGQIEEFLMQFNGEGIQHVAFLTDDLVKTWDALKKIGMRFMTAPPDTYYEMLEGRLPDHGEPVDQLQARGILLDGSSVEGDKRLLLQIFSETLMGPVFFEFIQRKGDDGFGEGNFKALFESIERDQVRRGVLTAD
modifications: 4-hydroxyphenylpyruvate dioxygenase (HPPD; Pseudomonas fluorescens) (1)..(358)
character of inhibition by HPPD inhibitor herbicides (time-course) [3]: slow and tight binding inhibitor | brown pigmentation, in words ([2]; 25 μM Cmpd. 1): do not produce any brown pigmentation | brown pigmentation in the presence of the HPPD inhibitor, in words [4]: did not produce a substantial brown pigmentation

B3: 32 (protein)
chain: MADLYENPMGLMGFEFIEFASPTPGTLEPIFEIMGFTKVATHRSKNVHLYRQGEINLILNNEPNSIASYFAAEHGPSVCGMAFRVKDSQKAYNRALELGAQPIHIDTGPMELNLPAIKGIGGAPLYLIDRFGEGSSIYDIDFVYLEGVERNPVGAGLKVIDHLTHNVYRGRMVYWANFYEKLFNFREARYFDIKGEYTGLTSKAMSAPDGMIRIPLNEESSKGAGQIEEFLMQFNGEGIQHVAFLTDDLVKTWDALKKIGMRFMTAPRDEYYEMLEGRLPDHGEPVDQLQARGILLDGSSVEGDKRLLLQIFSETLMGPVFFEFIQRKGDDGFGPHSFKVLFESVERDQVRRGVLTAD
modifications: mutant HPPD polypeptide
brown coloring compared with SEQ ID NO: 2, in words [2]: stronger brown coloring

B4: SEQ ID NO: 1: reference wild-type Pseudomonas fluorescens HPPD polypeptide (protein, listed as Pseudomonas fluorescens)
chain: MADLYENPMGLMGFEFIEFASPTPGTLEPIFEIMGFTKVATHRSKNVHLYRQGEINLILNNEPNSIASYFAAEHGPSVCGMAFRVKDSQKAYNRALELGAQPIHIDTGPMELNLPAIKGIGGAPLYLIDRFGEGSSIYDIDFVYLEGVERNPVGAGLKVIDHLTHNVYRGRMVYWANFYEKLFNFREARYFDIKGEYTGLTSKAMSAPDGMIRIPLNEESSKGAGQIEEFLMQFNGEGIQHVAFLTDDLVKTWDALKKIGMRFMTAPPDTYYEMLEGRLPDHGEPVDQLQARGILLDGSSVEGDKRLLLQIFSETLMGPVFFEFIQRKGDDGFGEGNFKALFESIERDQVRRGVLTAD
modifications: 4-hydroxyphenylpyruvate dioxygenase (HPPD; Pseudomonas fluorescens) (1)..(358)
brown pigment formation [2, 6]: 0 | brown pigment formation [2, 7]: 0 | brown pigment formation [2, 8]: 0 | brown pigment formation [2, 9]: 0 | brown pigment formation [2, 10]: 0

B5: 96 (protein)
chain: MADLYENPMGLMGFEFIEFASPTPGTLEPIFEIMGFTKVATHRSKNVHLYRQGEINLILNNEPNSIASYFAAEHGPSVCGMAFRVKDSQKAYNRALELGAQPIHIDTGPMELNLPAIKGIGGAPLYLIDRFGEGSSIYDIDFVYLEGVERNPVGAGLKVIDHLTHNVYRGRMVYWANFYEKLFNFREARYFDIKGEYTGLTSKAMSAPDGMIKIPLNEESSKGAGQIEEFLMQFNGEGIQHVAFLTDDLVKTWDALKKIGMRFMTAPGDEYYEMLEGRLPDHGEPVDQLQARGILLDGSSVEGDKRLLLQIFSETLMGPVFFEFIQRKGDDGFGPHSFKVLFESVERDQVRRGVLTAD
modifications: mutant HPPD polypeptide
brown coloring compared with SEQ ID NO: 2, in words [2]: stronger brown coloring

B6: SEQ ID NO:104 (protein)
chain: MADLYENPMGLMGFEFIEFASPTPGTLEPIFEIMGFTKVATHRSKNVHLYRQGEINLILNNEPNSIASYFAAEHGPSVCGMAFRVKDSQKAYNRALELGAQPIHIDTGPMELNLPAIKGIGGAPLYLIDRFGEGSSIYDIDFVYLEGVERNPVGAGLKVIDHLTHNVYRGRMVYWANFYEKLFNFREARYFDIKGEYTGLTSKAMSAPDGMIKIPLNEESSKGAGQIEEFLMQFNGEGIQHVAFLTDDLVKTWDALKKIGMRFLTAPGDEYYEMLEGRLPDHGEPVDQLQARGILLDGSSVEGDKRLLLQIFSETLMGPVFFEFIQRKGDDGFGPHSFKVLFEQMERDQVRRGVLTAD
modifications: mutant HPPD polypeptide
brown coloring compared with SEQ ID NO: 2, in words [2]: stronger brown coloring

B7: SEQ ID NO: 104: mutant HPPD polypeptide: R213K M264L P268G T270E E335P G336H N337S A340V S344Q I345M (protein)
chain: MADLYENPMGLMGFEFIEFASPTPGTLEPIFEIMGFTKVATHRSKNVHLYRQGEINLILNNEPNSIASYFAAEHGPSVCGMAFRVKDSQKAYNRALELGAQPIHIDTGPMELNLPAIKGIGGAPLYLIDRFGEGSSIYDIDFVYLEGVERNPVGAGLKVIDHLTHNVYRGRMVYWANFYEKLFNFREARYFDIKGEYTGLTSKAMSAPDGMIKIPLNEESSKGAGQIEEFLMQFNGEGIQHVAFLTDDLVKTWDALKKIGMRFLTAPGDEYYEMLEGRLPDHGEPVDQLQARGILLDGSSVEGDKRLLLQIFSETLMGPVFFEFIQRKGDDGFGPHSFKVLFEQMERDQVRRGVLTAD
modifications: mutant HPPD polypeptide
notes: mutant HPPD polypeptide: R213K M264L P268G T270E E335P G336H N337S A340V S344Q I345M
brown pigment formation [2, 6]: +++ | brown pigment formation [2, 7]: +++ | brown pigment formation [2, 8]: +++ | brown pigment formation [2, 9]: ++ | brown pigment formation [2, 10]: ++ | leaf damage score, Interquartile range ([5]; 75th minus 25th percentile): 15.0 | leaf damage score, 25th percentile ([5]; scale 0 (no damage) to 100 (complete bleaching)): 5.0 | leaf damage score, 75th percentile ([5]; scale 0-100): 20.0 | leaf damage score, 90th percentile ([5]; scale 0-100): 72.5 | leaf damage score, Median ([5]; scale 0-100): 15.0
